Data set [1] deals with PCNA (Saccharomyces cerevisiae) (UniProt P15873). The experiment in a line: surface plasmon resonance. The conditions noted are these: cited from earlier work. On the technique in general: Surface plasmon resonance follows binding to a sensor surface in real time, without labels.
The target in data set [2] is AF488-labeled PCNA (UniProt P15873). The experiment in a line: other fluorescence titration; PCNA opening (unquenching) assay: fluorescence of 10 nM PCNA-AF488_2 at 517 nm, increasing RFC, 0.5 mM ATP; assay buffer; equilibrium, quadratic fit.
The target in data set [3] is MDCC labeled PCNA (UniProt P15873). Nature of the data set: other fluorescence titration; fluorescence intensity of 10 nM PCNA-MDCC at 470 nm, increasing RFC, 0.5 mM ATPγS in place of ATP; assay buffer; equilibrium, quadratic fit.
The target in data set [4] is AF488-labeled PCNA (UniProt P15873).
Data set [5] has the same target. The experiment in a line: other fluorescence titration; PCNA opening (unquenching) assay: fluorescence of 10 nM PCNA-AF488_2 at 517 nm, increasing RFC, 0.5 mM ATPγS in place of ATP; assay buffer; equilibrium, quadratic fit.
Data set [6] concerns the target MDCC labeled PCNA (UniProt P15873). The experiment in a line: other fluorescence titration; fluorescence intensity of 10 nM PCNA-MDCC at 470 nm, increasing RFC, 0.5 mM ATP; assay buffer 30 mM HEPES-NaOH pH 7.5, 150 mM NaCl, 10 mM MgCl2, 0.5 mM EDTA, 2 mM DTT, 2% glycerol; equilibrium, quadratic fit.
Data set [7] deals with AF488-labeled PCNA (UniProt P15873). The source holds these as a separate data set.
The target of data set [8] is RFC clamp loader (WT; Rfc1 N-terminal truncation) (Saccharomyces cerevisiae, UniProt P38630;P40348;P38629;P40339;P38251 284-861;1-353;1-340;1-323;1-354). The experiment in a line: fluorescence anisotropy; 0.5 mM ATPgS; no PCNA; 20 nM p/t DNA-RhX, 0.5 mM ATPgS, varied RFC, with or without 2 uM PCNA; buffer, salt, pH and temperature not in the material (Section 3.1 text missing). Particulars: protein: recombinant; tags: Rfc1 N-terminal 6xHis and kinase recognition motif replacing residues 1-283; copies: 1;1;1;1;1; label: X-rhodamine (RhX) on 5' end of template; primer-template: 26 bp duplex with 34 nt 5' template overhang. Background: Fluorescence polarisation rises when a labelled molecule tumbles more slowly, as on binding a larger partner.

Data set [9] has as its target RFC WB-EQ (Walker B Glu to Gln quadruple mutant) (Saccharomyces cerevisiae, UniProt P38630;P40348;P38629;P40339;P38251 284-861;1-353;1-340;1-323;1-354, E425Q;E141Q;E118Q;E115Q). The description is as above. The conditions noted are these: protein: recombinant; tags: Rfc1 N-terminal 6xHis and kinase recognition motif replacing residues 1-283; copies: 1;1;1;1;1; label: X-rhodamine (RhX) on 5' end of template; primer-template: 26 bp duplex with 34 nt 5' template overhang.

The target of data set [10] is RFC WB-EA (Walker B Glu to Ala quadruple mutant) (Saccharomyces cerevisiae, UniProt P38630;P40348;P38629;P40339;P38251 284-861;1-353;1-340;1-323;1-354, E425A;E141A;E118A;E115A). Described as above. Particulars: protein: recombinant; tags: Rfc1 N-terminal 6xHis and kinase recognition motif replacing residues 1-283; copies: 1;1;1;1;1; label: X-rhodamine (RhX) on 5' end of template; primer-template: 26 bp duplex with 34 nt 5' template overhang.

Data set [11] deals with RFC WB-EA (Walker B Glu to Ala quadruple mutant);PCNA (Saccharomyces cerevisiae;Saccharomyces …, UniProt P38630;P40348;P38629;P40339;P38251;P15873 284-861;1-353;1-340;1-323;1-354;1-258, E425A;E141A;E118A;E115A|). The experiment in a line: fluorescence anisotropy; 0.5 mM ATPgS; 2 uM PCNA; 20 nM p/t DNA-RhX, 0.5 mM ATPgS, varied RFC, with or without 2 uM PCNA; buffer, salt, pH and temperature not in the material (Section 3.1 text missing). Particulars: protein: recombinant;recombinant; tags: Rfc1 N-terminal 6xHis and kinase recognition motif replacing residues 1-283;; copies: 1;1;1;1;1;3; label: X-rhodamine (RhX) on 5' end of template; primer-template: 26 bp duplex with 34 nt 5' template overhang.

Data set [12] addresses RFC WB-EQ (Walker B Glu to Gln quadruple mutant);PCNA (Saccharomyces cerevisiae;Saccharomyces …, UniProt P38630;P40348;P38629;P40339;P38251;P15873 284-861;1-353;1-340;1-323;1-354;1-258, E425Q;E141Q;E118Q;E115Q|). The description is as above. Particulars: protein: recombinant;recombinant; tags: Rfc1 N-terminal 6xHis and kinase recognition motif replacing residues 1-283;; copies: 1;1;1;1;1;3; label: X-rhodamine (RhX) on 5' end of template; primer-template: 26 bp duplex with 34 nt 5' template overhang.

For data set [13], the target named is RFC clamp loader (WT; Rfc1 N-terminal truncation);PCNA (Saccharomyces cerevisiae;Saccharomyces …, UniProt P38630;P40348;P38629;P40339;P38251;P15873 284-861;1-353;1-340;1-323;1-354;1-258, |). The data set is described as above. The conditions noted are these: protein: recombinant;recombinant; tags: Rfc1 N-terminal 6xHis and kinase recognition motif replacing residues 1-283;; copies: 1;1;1;1;1;3; label: X-rhodamine (RhX) on 5' end of template; primer-template: 26 bp duplex with 34 nt 5' template overhang.

Chain of PCNA (Saccharomyces cerevisiae) (P15873 whole entry): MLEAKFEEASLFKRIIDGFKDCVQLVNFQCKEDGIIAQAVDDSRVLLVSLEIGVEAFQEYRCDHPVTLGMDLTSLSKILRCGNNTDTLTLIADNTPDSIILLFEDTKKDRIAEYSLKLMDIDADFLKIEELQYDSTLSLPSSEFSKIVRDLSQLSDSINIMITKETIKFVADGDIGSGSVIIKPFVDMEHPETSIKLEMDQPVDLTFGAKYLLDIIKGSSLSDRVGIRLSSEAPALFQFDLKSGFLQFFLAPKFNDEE

For the molecule “Replication factor C (from UniProt P38630)”, the Kd in data set [1] was 1.3 nM.
Regarding “wild-type replication factor C (RFC) complex, Rfc1 lacking its first 283 residues (from UniProt P38630 284-861; P40348 1-353; P38629 1-340; P40339 1-323; P38251 1-354)”, the Kd with AF488-labeled PCNA [2] was 11 nM; with MDCC labeled PCNA [3], 13 nM; in the data set with AF488-labeled PCNA [5], 5.8 nM; with MDCC labeled PCNA [6], 7.1 nM. The PCNA opening: increase of AF488 fluorescence of 10 nM PCNA-AF488 2 at saturating RFC, 0.5 mM ATPγS with AF488-labeled PCNA [4] is 1.5 fold. For the same molecule, the PCNA opening: increase of AF488 fluorescence of 10 nM PCNA-AF488 2 at saturating RFC, 0.5 mM ATP with AF488-labeled PCNA [7] was 2 fold.

B1: p/t DNA-RhX (26/60-mer primed template) (dsDNA)
DNA 1: TTCAGGTCAGAAGGGTTCTATCTCTGTTGGCCAGAATGTCCCTTTTATTACTGGTCGTGT
DNA 2: ACACGACCAGTAATAAAAGGGACATT
modifications: 5' C6 amino linker on the 60-mer template
Turning to B1, the Kd amounted to 91 ± 28 nM in [8]; 690 ± 400 nM in [9]; 1060 ± 200 nM in data set [10]; 1800 ± 700 nM in data set [11]; 460 ± 200 nM in data set [12]; 37 ± 13 nM in data set [13].

The term Kd denotes the concentration at which binding is half-saturated.

Source of the values: publication PMC3740443, “A Novel Function for the Conserved Glutamate Residue in the Walker B Motif of Replication Factor C”.
